# Measurements taken from the supplement of paper PMC10567573.
# ± gives the standard deviation.
# Experiment: protein stability index of a GFP-peptide fusion (GPS, HEK-293T) (PSI 1-6); higher = more stable
# [1] = treatment: DMSO, c terminus: a fixed tail appended
# [2] = treatment: MLN4924 1 uM, 8 h, c terminus: a fixed tail appended
# [3] = treatment: DMSO, c terminus: native
# [4] = treatment: MLN4924 1 uM, 8 h, c terminus: native
# 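Also: 24-mer peptide tiles fused after GFP, lentivirally expressed, FACS-sorted into six equal bins by GFP/DsRed ratio, decoded by Illumina sequencing, PSI is the read-weighted mean bin number.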
Sequence,protein stability index [1],protein stability index [2],protein stability index [3],protein stability index [4]
AAAVLFRMSEDKPQDYKKRLSVEL [CTNNB1],2.62 ± 0.31,2.25 ± 0.27,–,–
AAAYSPSEALLYALVHDHQAYAHY [ANKRD9],2.05 ± 0.14,2.27 ± 0.28,–,–
AALSERGQAEEELIKAKSQARLEE [LRRC45],5.28 ± 0.55,5.39 ± 0.46,–,–
AAPDCTPSLEAGNPAPAAPCPLGE [MYCL],5.42 ± 0.25,5.49 ± 0.26,–,–
AAWIGGFLHSLVQFLFIYQLPFCG [OR4A15],3.92 ± 0.8,3.21 ± 0.6,–,–
ACGDAFTVAIGAESEVYSWGKGAR [NEK8],2.84 ± 0.23,2.77 ± 0.3,–,–
ACGVILYILLVGYPPFWDEDQHRL [CAMK2D],2.6 ± 0.9,2.63 ± 0.51,–,–
ACYAGAAPAPSQVKSKAKKTVDKH [CEBPB],4.95 ± 0.33,5.09 ± 0.39,–,–
ADDPDDGPVPGTPGLPGSTGNPKS [SPNS1],5.47 ± 0.39,5.49 ± 0.35,–,–
ADGSLRMDDPKGDFITLYQMASQS [M1AP],3.58 ± 0.083,3.53 ± 0.15,–,–
ADIFRIYAPEAPYTSPDKLKDIFM [PDS5B],2.06 ± 0.11,2.1 ± 0.21,–,–
ADISQMLVCTADGDIHLSPEEPAA [TAF7L],4.93 ± 0.17,4.94 ± 0.077,–,–
AEEETLSRELEPELRRRRYEYDHW [ALKBH7],4.35 ± 0.29,4.59 ± 0.22,–,–
AEFQSLFSLLEELKEGMLMKIKQD [FSD1],2.21 ± 0.36,2.33 ± 0.2,–,–
AEGALEEVPLEVLRQRESKWLDML [TBC1D10A],4.09 ± 0.88,3.91 ± 0.47,–,–
AEKSGEATDGARPQALPEPMQESK [CHGA],5.47 ± 0.3,5.48 ± 0.22,–,–
AERYGLSGSDVLDNVAYARAFNTD [RAD51],3.99 ± 0.2,4.07 ± 0.32,–,–
AFYDVTGGMSHLHTFRATFQEPLY [TRIM14],2.31 ± 0.25,2.41 ± 0.5,–,–
AGEFTGWEKVGSGGFGQVYKVRHV [RIPK4],2.46 ± 0.61,2.25 ± 0.29,–,–
AGEVVCEAIKNEMNVMLKSSPVDL [IMPA1],3.67 ± 0.91,4.11 ± 0.25,–,–
AGIVRVFSGTPPPPVLSFRLVHTT [FCHO1],1.99 ± 0.07,2.13 ± 0.57,–,–
AGPGGGAERRRAGRLLLTLPLLRQ [ESRRA],2.53 ± 0.29,2.84 ± 0.21,–,–

Sequence,protein stability index [1],protein stability index [2],protein stability index [3],protein stability index [4]
AGQEGEDTLRRRLLAPEAGSHPQQ [TOR1AIP2],3.22 ± 0.89,3.8 ± 0.52,–,–
AGTAGHPPSGSQPLTSTQGLEHAA [FBF1],4.84 ± 0.11,4.89 ± 0.35,–,–
AHAGAVHNGKIYISGGVHNGEYVP [KLHL14],3.03 ± 0.28,2.82 ± 0.41,–,–
AIHSSDEGEDQAGDEDEDDEWDD [WAS],–,–,5.06 ± 0.3,5.25 ± 0.29
AILSLDQIKAIRGSNEYTEGPSVV [SPRY1],3 ± 0.072,2.98 ± 0.3,–,–
AIQDQLPRLQQLLKTLEEGLEGLE [FANCE],3.61 ± 0.32,3.68 ± 0.23,–,–
AKKKRLTKADIGTPSNFQHIGHVG [WASL],3.52 ± 0.3,3.67 ± 0.18,–,–
AKVGPGLPDGCQPLQLLREMRQAL [CBY2],2.73 ± 0.57,2.82 ± 0.33,–,–
ALHIIVQYNRPISDFLTLHSIIIS [FEM1B],3.03 ± 1,2.37 ± 0.56,–,–
ALLWLSCSIALLRALATSNARAQQ [GNAS],3.21 ± 0.51,2.99 ± 0.25,–,–
ALSEQKAQDLGELLATAEQEQLSL [LRRC45],5.07 ± 0.36,5.27 ± 0.1,–,–
ALVRWWNGIGAVLDFTHPKARDWF [MYORG],2.59 ± 0.52,2.3 ± 0.51,–,–
APDFVGDILWEHLEQMIKENQEKT [ETS2],4.44 ± 0.13,4.58 ± 0.14,–,–
APNRFFQKLNVFKNFIGLLQNQNF [NLN],–,2.24 ± 0.82,–,–
APPLPDSPQPLASSPGPWGLEALA [FCHO1],4.43 ± 0.16,3.99 ± 0.18,–,–
APSPSPVTPAQNNLLQPNFEAAFG [SNAP91],4.43 ± 0.089,4.54 ± 0.38,–,–
APVSRGRDSYGGPPRREPLPSRRD [RBMX],5.12 ± 0.21,4.93 ± 0.22,–,–
APYFERSSSKRYTMSRSLDGASVN [EPB41L3],3.3 ± 0.33,3.44 ± 0.7,–,–
AQAHRIHIDPEIQDGSPTTSRRPS [PDLIM4],5.31 ± 0.43,5.34 ± 0.22,–,–
AQDPDVGTNTVSFYTLSPNSHFSL [PCDHGC5],2.57 ± 0.26,2.61 ± 0.3,–,–
AQRQACMYASSAPPSEPVPSLEDI [TBX5],4.92 ± 0.14,4.96 ± 0.077,–,–
ARGAGPPEPLRICPLHISVKEELD [TRIM35],4.59 ± 0.19,4.86 ± 0.4,–,–

Sequence,protein stability index [1],protein stability index [2],protein stability index [3],protein stability index [4]
ARGGAVSARYVLPDEAARARLLQE [DUSP5],4.63 ± 0.16,4.54 ± 0.34,–,–
ARRRVCHTEDFQKEEGTVNGASWH [CPXM2],4.57 ± 0.16,4.71 ± 0.84,–,–
ARVKAFNKTGVSPYSKTLVLQTSE [TRIM9],3.2 ± 0.28,3.34 ± 0.21,–,–
ASDMFRRLRDAGFRVTLWVHPFVN [MYORG],2.23 ± 0.17,2.13 ± 0.053,–,–
ASKCKGAAVKLADFGLAIEVQGDQ [CAMK2B],3.5 ± 0.28,3.6 ± 0.37,–,–
ASKWGMSYDELCFLEQRPQSPTLE [EDARADD],3.67 ± 0.12,3.81 ± 0.062,–,–
ASLENSLEETKGRYCMQLSQIQGL [KRT16],3.3 ± 0.39,3.17 ± 0.25,–,–
ASLNGYRLGERVLQVSFKTSKQHK [ELAVL3],3.45 ± 0.13,3.52 ± 0.32,–,–
ASRVKLQHLPAQEQWDRLLVLYPT [PLEKHN1],2.21 ± 0.14,2.41 ± 0.35,–,–
ASSGGAGAAVGTGSSYPTTTISYL [JUNB],2.8 ± 0.34,2.79 ± 0.39,–,–
ASVPKVETVKSDNKDDDIDIDAI [EIF5],–,–,5.59 ± 0.17,5.53 ± 0.22
ATKFKQLYRSRMNSLEMTPAVRQR [HMOX1],3.32 ± 0.21,3.56 ± 0.27,–,–
ATRGVPAKRLLDADDAAAVAAKCP [TRIB1],4.39 ± 1.5,–,–,–
AVKDGLIVETLTVGCKGSKAGIEQ [ZMYND11],3.57 ± 0.14,3.48 ± 0.22,–,–
AVPVSTSKPSSDLLDLQPDFSSGG [SNAP91],4.76 ± 0.17,4.84 ± 0.14,–,–
AWEKLLAAFPNLANLSRTQLLHLG [KLHDC10],2.06 ± 0.27,2.1 ± 0.11,–,–
AWETKKILAVSFAPLIQPCHSESG [PCMTD2],2.35 ± 0.2,2.54 ± 0.35,–,–
AWIWHDCHRHYHSMEVFTHYDLLN [LOXL2],2.41 ± 0.14,3 ± 1.2,–,–
AYNHRTDLFKSFPGPMDWVPRYTG [ADAMTS4],2.89 ± 0.14,2.82 ± 0.11,–,–
CCQWLKPKMRSKEQILELLVLEQF [ZNF449],2.46 ± 0.51,2.46 ± 0.52,–,–
CDPSRIYKPQTRLKRKQPVRKRQ [DFFB],–,–,3.96 ± 0.36,4.15 ± 0.13
